Measured values taken from patent US20080233097A1, “Phosphorylation Site Of Mitogen-Activated Protein Kinases, Modified Proteins And Applications” (UNIVERSIDAD AUTONOMA DE MADRID, priority 2005, published 2008).

Experiments:
[1] = system: GST-ATF2; assay: phosphorylation of GST-ATF2 by MKK6CAM-activated p38; format: biochemical; conditions: with MKK6CAM, 2 μg GST-ATF2
Method: (§1) The reactions were carried out at 30° C. for 30 minutes and the proteins were separated in 8% SDS-PAGE gels. The amount of p38 in each point was visualized by Coomassie Blue staining. Then the radioactivity in each p38 isoform was determined. […] FIG. 11B: In these same assays, the ability of MKK6CAM-activated GST-p38WT, GST-p38T123A and GST-p38T123D to phosphorylate 2 μg of GST-ATF2 is evaluated. The representative autoradiography (^32P) of the total GST-ATF2 control (Coomassie Blue) is attached.
(§2) The ATF2 and MEF2A forms bound to GST were used to test the catalytic activity of GST-p38. In most cases, 2 μg of GST-ATF2 or GST-MEF2A, of own production, were used. The phosphorylation conditions are the same as set forth in the foregoing cases. Nevertheless, in other occasions, relevantly pointed out in the Figures, 0.2 μg of substrate were used and the phosphorylation reaction was allowed to take pace for 15 minutes only.

[2] = target: T1, MAPKAPK2 (MK2) (Homo sapiens, UniProt P49137); assay: GST pull-down of His-tagged MAPKAPK2; format: binding; conditions: GST-p38 300 nM, His-MK2 20 nM; vs T123A mutant or wild type
T1 construct: made in house
Method: Purified GST-p38 and its T123 mutants (300 nM) were incubated in the presence of purified MKK6 (3 nM) or His-tagged MAPKAPK2 ([…], 20 nM) in a pull down assay with GST as a negative control. Sedimented proteins were developed by Western Blot using anti-MKK6, anti-Histidine (for His-MK2) or anti-GST (for total amounts of GST-p38s) antibodies. In all panels, results are representative of three independent experiments performed in duplicate.
The proteins GST, GST-p38 wt, GST-p38T123A and GST-p38T123D were bacterially expressed and isolated using Gluthatione-Sepharose 4B (GE-Amersham) following standard procedures (Murga, C. et al. High affinity binding of beta-adrenergic receptor kinase to microsomal membranes. Modulation of the activity of bound kinase by heterotrimeric G protein activation. J Biol Chem 271, 985-994 (1996)). His-MAPKAPK2 was purified using Probond resin (Invitrogen) following manufacturer's indications. MKK6CAM was purchased from Upstate Biotech. The amount of proteins detailed in the legend to each figure were incubated in binding buffer (25 mM Tris pH 7.5, 0.25 M NaCl, 10 mM MgCl2, 5 mM NaF and 0.5% BSA) for 30 min at 30° C. with constant shaking. ATP (50 μM) was added for MAPKAPK2 pull downs. Precipitates were washed three times (10 ml) with the same buffer containing 0.5% Triton X100. Precipitated complexes were resolved by SDS-PAGE and developed by Western Blot.

[3] = system: GST-MEF2A; assay: phosphorylation of GST-MEF2A by p38; format: biochemical; conditions: with MKK6CAM, 2 μg GST-MEF2A
Method: FIG. 12A: In vitro phosphorylations are carried out with the fusion proteins indicated in the Figure, in the presence (+) or absence (−) of recombinant MKK6CAM(40 ng) and 2 μg of GST-MEF2A. The assay was left to take place for 30 minutes. The proteins were separated in 8% SDS-PAGE, stained with CBB and the incorporated radioactivity (^32P) was detected. Panels of a representative experiment of the three assays carried out independently are provided. FIG. 12B: The baseline activity of the three p38 fusion proteins in the absence of the MKK6CAM activator was evaluated in the previously described conditions. A representative autoradiography after a long exposure is shown.
as §2

[4] = system: MKK6CAM; assay: p38 phosphorylation by MKK6CAM in vitro; format: biochemical; conditions: 150 nM fusion protein, 40 ng MKK6CAM
Method: as §1
As in the previous cases, the reactions were left to take place at 30° C. for 30 minutes and the proteins were resolved in 8% SDS-PAGE gels. With the purpose of assuring the inclusion of identical amounts of protein, they were visualized in the gel by Coomassie Blue staining. Subsequently, the radioactivity incorporated in each p38 isoform was determined.

T1 sequence (P49137 with tags, fused parts or gaps): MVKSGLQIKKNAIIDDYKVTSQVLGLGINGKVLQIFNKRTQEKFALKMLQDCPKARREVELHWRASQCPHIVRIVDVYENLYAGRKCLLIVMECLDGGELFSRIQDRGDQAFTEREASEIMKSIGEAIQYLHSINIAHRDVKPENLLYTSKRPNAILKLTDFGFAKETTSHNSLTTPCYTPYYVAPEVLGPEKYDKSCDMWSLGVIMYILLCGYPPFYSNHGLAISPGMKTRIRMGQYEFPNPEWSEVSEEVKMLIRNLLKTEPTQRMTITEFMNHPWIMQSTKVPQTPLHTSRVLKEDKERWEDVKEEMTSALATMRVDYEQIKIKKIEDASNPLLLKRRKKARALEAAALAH

- ability to associate to MK2 [2]: severely impaired
B1: p38T123D: p38α mutant; aspartic acid mimics the constitutively phosphorylated form of threonine 123 (protein, UniProt P47811 2-360, looked up, variant T123D)
Mitogen-activated protein …: SQERPTFYRQELNKTIWEVPERYQNLSPVGSGAYGSVCAAFDTKTGHRVAVKKLSRPFQSIIHAKRTYRELRLLKHMKHENVIGLLDVFTPARSLEEFNDVYLVTHLMGADLNNIVKCQKLDDDHVQFLIYQILRGLKYIHSADIIHRDLKPSNLAVNEDCELKILDFGLARHTDDEMTGYVATRWYRAPEIMLNWMHYNQTVDIWSVGCIMAELLTGRTLFPGTDHIDQLKLILRLVGTPGAELLKKISSESARNYIQSLAQMPKMNFANVFIGANPLAVDLLEKMLVLDSDKRITAAQALAHAYFAQYHDPDDEPVADPYDQSFESRDLLIDEWKSLTYDEVISFVPPPLDQEEMES
modifications: GST or Flag tag in some forms
- catalytic activity on GST-ATF2 [1]: lacks the most minimum catalytic activity
- catalytic activity on MEF2A [3]: completely abolished
- phosphorylation by MKK6CAM (32P) [4]: much worse MKK6CAM substrate than the other two p38
